What was measured:
[1] = 14C assay with IPTG-induced recombinant E. coli cells: 14CO2 captured from [14C]-carboxyl-labeled dicamba; details: for Enzymatic Detection level: dicamba decarboxylation activity of the protein of the given SEQ ID NO, High / Low / No; for Dicamba Decarboxylase Activity: induced recombinant E. coli cells, [14C]-carboxyl-labeled dicamba, 14CO2 capture
[2] = Saturation mutagenesis of SEQ ID NO:109: dicamba decarboxylation activity of point mutants (carbon dioxide released); details: decarboxylation activity (carbon dioxide released) of point mutant compared with unmutated backbone protein; backbone SEQ ID NO: 109

B1: 90 (protein)
chain: MAATIDRVLYLGNATQRRYTSATVSVPRIFGKVALEEHVGTSIWAKYNLTPPANAVVGVLNRPPTLPNTLDTIARLDDINGRLSSMNHSGIGYVIVSLSSPGIQGVHDTALAIKFSTDINDELYLKYANAYPDKFAFFATVPMQDPVAAASELERAVSLLGAKGAAINGYTDIGPPGNSTTRYLDDPINAPFWSKVAALNVPIYLHPRAPPPSQQLVYNYPNNSLSAYPGLVTGGFAYGAETAVHALRLMLSGLFDTHPNIQIILGHAAEGLPFLIHRSDTQLAAEVPGTNGPYKRPLRYYLRNNFYATLSGVRRLSTTQCTLAEMGEERVLFSVDYPFQSNEDAADWFDGVEGMSVETKRKVARGNARRLFNLTVDLDERQIDGDFM
modifications: Pyrenophora tritici-repentis
Enzymatic Detection level [1]: Low
Dicamba Decarboxylase Activity [1]: Low
Fold Activity [2]: 1.7

B2: 85 (protein, listed as Maritimibacter alkaliphilus)
chain: MAADRKPGLVSVEEGFMIPEVVAELSRIAGGVPSMKSGPIAGPFMDDLLDIGKGRVARMDADGVAVQILALAAPGVQKFDPDTALALSRLTNDRLAEAIAAHPARFGGLAAAPPQAAREGAKELDRAITTLGLNGLIVNSHTNDLYLDDPSFWPLLEAAEALDVPVYLHPREPAAGIEGGLMAMTGFTVGWAYAVETGTHLLRMIAAGVFDRFPRLRIVLGHLGEMIPFMLDRIDNRYPFEMGVTGAKPLPRKPSDYFRDHVTVATSGMNFNAPMRAAIEVLGADKVMFAADYPMERQDEEVAKFAALDLTPDERKRIGEDNARRVFGL
Enzymatic Detection level [1]: Low
Dicamba Decarboxylase Activity [1]: Low
Fold Activity [2]: 1.4

B3: 96 (protein)
chain: MAPLIVDVHTHVYPPAYMQMLRSRKTVPYVHDPSNNRDPRLIILSSDDDASIPLDQRGRPVDSSYWDINVKLSFMRQHGINCSVISLANPWLDFVEPAEAQMWAERINDDLEKTCATVNKAADPGNTLTLDQKETLFAFGALPLSAPSSESVVAEIKRLKTLEHLRGVIMGTSGLGKGLDDARLDPVWEALQETDMLMFLHPHYGLPEEAYGGPETTGRYGHVLPLALGFPLETTIAVTRMLLSGVFDRFPRLKILLAHSGGTLPFLAGRIESCILHERKFISGGGDVQGPQRSVWDVLKTNIYLDAVVYGKPGLEAAMTASGSDRLLFGTDHPFFPPLDSKDNSWPSVTTNYQAIHATFDTNSKTVADVLGGNAARILNLK
modifications: Aspergillus nidulans
Enzymatic Detection level [1]: No
Dicamba Decarboxylase Activity [1]: No
Fold Activity [2]: 1.1

B4: 94 (protein, listed as Bacillus thuringiensis)
chain: MANRGDSNMKSLVGVIMGSTSDWETMKYACDILDELNIPYEKKVVSAHRTPDYMFEYAETARERGLKVIIAGAGGAAHLPGMVAAKTNLPVIGVPVQSKALNGLDSLLSIVQMPGGVPVATVAIGKAGSTNAGLLAAQILGSFHDDIHDALELRREAIEKDVREGSELV
Enzymatic Detection level [1]: No
Dicamba Decarboxylase Activity [1]: No
Fold Activity [2]: 1.5

B5: 86 (protein, listed as Sphingopyxis alaskensis)
chain: MALGASVASREASAQMAKAPMRKIATEEAFATPELAKAWLEIARSEPNSSLDIPTGILSIFDNPRPGSNQDRFRRQLLDVDAERIRDMDEAGVDMQLLSVTIPGVQIFEPARAGELAVTTNDHLAAAIARRPTRFAGLACFAPHDPVQATREMERAVNALGLKGFIVNSHTQDLYLDDPRFAPVLEAAQSLDCPIYLHPRAPSNGMAAPFRDYSMGGSIWGFGVEAGTHAVRMILSGVFDRYPRLRIVLGHMGEALPFWMWRLDHMAARRAKDGRMKPLSLAPSEYFKRNFAVTTSGFESPDVLDLVIKVAGIENIMWAIDYPYESSRDAVTFIEGADLTASQRASIFHRNAVRHFRLS
Enzymatic Detection level [1]: Low
Dicamba Decarboxylase Activity [1]: Low
Fold Activity [2]: 1.4

B6: 6 (protein)
chain: MAEILSPEESIYYSKLSNDILAEGIKKNPTRFRGFAALPTPDPIQAAMELERCIKLGGFVGAIINGHINGHYLDEIQFDPILEAADALDVPLYIHPAVPPKAIIDTYYKMNDTYAQTVMVSGGWGWHIETGVHVLRLISSGVFDRHPNLKIVIGHLGEGLPFFMHRLNNAIGGNLKKSYSTYLKENIYYTISGFNDPDLFQFVLKKVGENNIMFSSDYPFNFPKREVELFNELNISEEVREKISFKNAERILKI
modifications: Treponema brennaborense
Enzymatic Detection level [1]: No
Dicamba Decarboxylase Activity [1]: No
Fold Activity [2]: 0.9

B7: 93 (protein, listed as Mucilaginibacter paludis)
chain: MAKYGKHITINKNMRIVTLEEHISFPEMADQIPKAALGSFGRSEAMQRIAPKLADITGERLKSMDANGISMQVLSVDSSGVNLLSPQQGPAFATQYNDLIANRIAGFEKRFTAFAHLPMTAPFAAADELERAVKEHHFCGAMIRGLTGDQFLDHPQFAPIFERAQKLDVPIYLHPGLPPKGVADIYYSGLPNYSGMAEALACYGWGWHSETALHVLRLLFSGIFDQYPKLKLVIGHMGEMLPMMMARSEKAFKPGNGGANVRTLTDTFRSQVYLTTSGFFTQPPLKIALDTFGIDHVMFSVDYPFSTNEMGIEFLNEIDLPDEEVARIAHGNADKLLNLKA
Enzymatic Detection level [1]: Low
Dicamba Decarboxylase Activity [1]: Low
Fold Activity [2]: 1.6

B8: 97 (protein, listed as Sphingobium sp.)
chain: MAMMIIDCHGHYTVLPKAHDEWREQQKAAFKAGQPAPPYPEISDDEIRETIEANQLRLIKERGADMTIFSPRASAMAPHVGDQSVAVPWAQACNNLIARVVDLFPETFAGVCMLPQSPEADMTSSIAELERCVNELGFIGCNLNPDPGGGHFKHPPLTDRFWYPFYEKMVELDVPAMIHVSGSCNPAMHATGAYYLAADTIAFMQLLQGNLFADFPTLRFIIPHGGGAVPYHWGRFRGLADMLKQPSLDTLLMNNVFFDTCVYHQPGINLLADVIDNKNILFGSEMVGAVRGIDPTTGHYFDDTKRYIDALDISDQERHAIFEGNTRRVFPRLDAKLKARGL
Enzymatic Detection level [1]: No
Dicamba Decarboxylase Activity [1]: No
Fold Activity [2]: 2.9

B9: 91 (protein, listed as Botryotinia fuckeliana)
chain: MASFVCNFGKAALATLLLTPSISAADYTPQETVLNSGRPTFYDASTSIPGKIALEEHVGNDLLNGLYTVPYYPNTNEPQYSDSVYIADVGEKMLDIPSRIANMDAANISISVLTFGGPGIQGVFNATYATYAAGYVNDYLYKNYKNNANYTGRFEFWCSNALQEPSKAATELERCVKELGGVGSFVGGYTNNGGINGTANDIVYLDDPSMEPFLEKVVELDVPIYLHPRMPAPSQLLSVKGYEFLGSSPWGFSSETGAHALRLMVSGTLDKYPTLKIVLGHCGEGLPFFLPRIDQRLRHFKKELFNNTLTMEEYWLRNFYVTTAGVQDAGTLVDTIKRTGEDRVMFSVDYPFEDTVEIAGWFDRLEMNTLTKTKLAYENAKALLKLTCYVDAEKRPRIFNKHHVDDIIKHTHSPCIWTLFH
Enzymatic Detection level [1]: Low
Dicamba Decarboxylase Activity [1]: Low
Fold Activity [2]: 1.6

Source: patent US20160053277A1, “Compositions Having Dicamba Decarboxylase Activity and Methods of Use” (PIONEER HI-BRED INTERNATIONAL, INC., priority 2013, published 2016)
